Data: PMC4363471, “Crystal Structure of Helicobacter pylori Pseudaminic Acid Biosynthesis N-Acetyltransferase PseH: Implications for Substrate Specificity and Catalysis” (PLoS ONE, 2015)

Target: the molecule itself
Test: SEC; Superdex 200 HiLoad 26/60 gel filtration, 50 mM Tris/HCl pH 8.0, 200 mM NaCl; molecular weight from a calibration plot of log MW versus retention volume

B1: Pseudaminic acid biosynthesis protein H (PseH) from Helicobacter pylori (enzyme, UniProt O25094 1-180, looked up)
chain: MKKNYSYKNIQAIDFTNLNDGEKLLVLEFRNHPNTALWMYSTFISLKTHLQFIEDLKNSPNHRYFLFKEEGVYLGVGSITKINFFHKHGYLGIYKNPFLKNGGETILKALEFIAFEEFQLHSLHLEVMENNFKAIAFYEKNHYELEGRLKGFISKDKEFIDVLLYYKDKKGYNDQSLLKL
notes: PseH, N-acetyltransferase (EC 2.3.1.202) of H. pylori, 21 kDa, residues 1-180; the construct carries an additional GIDPFT fragment (cloning artifact); it is probably N-terminal, left after cleavage of a vector tag (surmised); Crystallised with the cofactor acetyl-CoA; also called flagellin modification protein H; FlmH; source: recombinant, purified as previously described [14]
With B1 the “stoichiometry N” value was 2.
